Results: patent US20130251707A1 (BALIOPHARM, published 2013)
Positions count from the first letter of the chain named. Names and notes keep the numbering of the source.

T1: human TNFR1-Fas on transfected mouse embryonic fibroblasts (human, UniProt P19438 30-211; P25445 191-335, limits assumed)
T1 construct: extracellular domain;domain: intracellular domain; also called MEF-TNFR1-Fas
T1 sequence (looked up): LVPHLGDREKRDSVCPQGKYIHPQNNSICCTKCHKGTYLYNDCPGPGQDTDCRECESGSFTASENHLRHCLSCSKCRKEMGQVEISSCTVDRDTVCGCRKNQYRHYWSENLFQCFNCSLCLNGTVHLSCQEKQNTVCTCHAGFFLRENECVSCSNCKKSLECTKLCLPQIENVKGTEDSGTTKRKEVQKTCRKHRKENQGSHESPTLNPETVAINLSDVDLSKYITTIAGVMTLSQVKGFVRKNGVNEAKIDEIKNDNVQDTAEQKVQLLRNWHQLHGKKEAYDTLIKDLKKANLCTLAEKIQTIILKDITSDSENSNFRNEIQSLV

T2: human TNFR1 on Kym-1, HeLa and HT1080 cells (human, UniProt P19438 30-455)
T2 sequence (looked up): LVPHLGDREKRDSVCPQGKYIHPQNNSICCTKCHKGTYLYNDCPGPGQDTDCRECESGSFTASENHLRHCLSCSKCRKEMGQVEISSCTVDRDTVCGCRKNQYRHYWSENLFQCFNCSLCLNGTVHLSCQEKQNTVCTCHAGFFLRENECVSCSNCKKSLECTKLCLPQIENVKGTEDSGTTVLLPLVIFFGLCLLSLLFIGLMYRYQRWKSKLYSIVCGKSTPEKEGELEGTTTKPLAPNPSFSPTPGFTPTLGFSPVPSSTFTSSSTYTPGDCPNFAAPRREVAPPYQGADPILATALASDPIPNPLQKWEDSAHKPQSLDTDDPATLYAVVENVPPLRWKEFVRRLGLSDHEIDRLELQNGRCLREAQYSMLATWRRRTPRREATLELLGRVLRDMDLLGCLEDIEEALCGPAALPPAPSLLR

T3: human TNFR2-Fas on transfected mouse embryonic fibroblasts (human, UniProt P20333 23-257; P25445 191-335, limits assumed)
T3 construct: extracellular domain;domain: intracellular domain; also called MEF-TNFR2-Fas
T3 sequence (looked up): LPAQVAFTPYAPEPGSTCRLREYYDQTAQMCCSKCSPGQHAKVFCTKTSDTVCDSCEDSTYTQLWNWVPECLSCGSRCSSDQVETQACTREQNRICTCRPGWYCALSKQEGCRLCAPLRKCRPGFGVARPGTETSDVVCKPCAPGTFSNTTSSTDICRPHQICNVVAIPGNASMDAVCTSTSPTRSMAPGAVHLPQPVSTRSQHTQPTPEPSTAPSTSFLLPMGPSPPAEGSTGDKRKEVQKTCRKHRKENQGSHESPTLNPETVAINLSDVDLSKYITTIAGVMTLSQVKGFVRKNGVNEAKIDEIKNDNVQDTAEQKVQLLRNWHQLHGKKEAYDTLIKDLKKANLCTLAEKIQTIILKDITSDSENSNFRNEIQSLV

T4: chimeric human/mouse TNFR1-Fc construct 4 (human CRD1 substituted by the mouse domain) (mouse; human, UniProt P25118 30-82; P19438 83-211, limits assumed)
T4 construct: not shown: Fc of vector pSecTagL1-Fc
T4 sequence (looked up): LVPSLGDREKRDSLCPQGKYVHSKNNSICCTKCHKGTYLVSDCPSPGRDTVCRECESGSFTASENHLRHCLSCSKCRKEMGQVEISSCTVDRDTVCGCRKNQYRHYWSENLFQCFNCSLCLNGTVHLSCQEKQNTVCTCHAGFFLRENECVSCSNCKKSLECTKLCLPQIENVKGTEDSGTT

T5: chimeric human/mouse TNFR1-Fc construct 5 (A1 domain of CRD1 of human TNFR1 exchanged with the mouse sequence) (mouse; human, UniProt P25118 30-58; P19438 59-211, limits assumed)
T5 construct: not shown: Fc of vector pSecTagL1-Fc
T5 sequence (looked up): T4 sequence (looked up) with V40Y, S41N, S45G, R48Q, V51D

T6: chimeric human/mouse TNFR1-Fc construct 3 (human CRD1 and 2 substituted by the mouse domains) (mouse; human, UniProt P25118 30-125; P19438 126-211, limits assumed)
T6 construct: not shown: Fc of vector pSecTagL1-Fc
T6 sequence (looked up): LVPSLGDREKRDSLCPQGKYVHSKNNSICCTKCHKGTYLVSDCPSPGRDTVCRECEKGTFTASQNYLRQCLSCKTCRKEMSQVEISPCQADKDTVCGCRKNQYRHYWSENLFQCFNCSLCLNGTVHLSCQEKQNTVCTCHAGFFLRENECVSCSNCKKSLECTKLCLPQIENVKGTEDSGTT

T7: chimeric human/mouse TNFR1-Fc construct 8 (mouse TNFR1 with human CRD1 and sub-domain A1 of CRD2) (human; mouse, UniProt P25118 100-212, limits assumed)
T7 construct: The label hl-2A1/m2B2-4 is tied to construct 8 by inference; also called chimeric TNFR1 hl-2A1/m2B2-4; not shown: Fc of vector pSecTagL1-Fc
T7 sequence: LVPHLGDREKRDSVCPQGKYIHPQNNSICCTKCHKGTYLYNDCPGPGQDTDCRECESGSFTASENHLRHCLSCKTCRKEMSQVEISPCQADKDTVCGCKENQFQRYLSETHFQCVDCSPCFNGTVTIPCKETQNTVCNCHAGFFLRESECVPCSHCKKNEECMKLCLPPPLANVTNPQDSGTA

T8: rhesus TNFR1-Fc (rhesus; human, UniProt A0A1D5QSM0 27-209)
T8 construct: range 27-209; also called rheTNFR1-Fc; not shown: Fc of vector pSecTagL1-Fc (human IgG1 Fc is stated for the human TNFR1-Fc)
T8 sequence: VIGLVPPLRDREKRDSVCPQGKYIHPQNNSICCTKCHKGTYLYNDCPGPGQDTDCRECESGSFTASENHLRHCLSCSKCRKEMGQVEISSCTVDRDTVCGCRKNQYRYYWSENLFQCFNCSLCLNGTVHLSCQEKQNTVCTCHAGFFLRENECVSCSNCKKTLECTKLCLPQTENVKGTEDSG

T9: human TNFR1-Fc (human, UniProt P19438 29-211)
T9 construct: range 29-211; also called huTNFR1-Fc; recombinant human TNFR1-Fc fusion protein; not shown: human IgG1 Fc region (vector pSecTagL1-Fc)
T9 sequence (looked up): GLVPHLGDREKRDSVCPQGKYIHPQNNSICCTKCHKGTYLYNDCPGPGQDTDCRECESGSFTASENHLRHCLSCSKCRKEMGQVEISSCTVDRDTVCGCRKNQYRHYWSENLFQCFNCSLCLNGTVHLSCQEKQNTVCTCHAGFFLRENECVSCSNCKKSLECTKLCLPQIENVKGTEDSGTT

T10: mouse TNFR1-Fc (mouse; human, UniProt P25118 30-212)
T10 construct: range 30-212; also called moTNFR1-Fc; not shown: Fc of vector pSecTagL1-Fc (human IgG1 Fc is stated for the human TNFR1-Fc)
T10 sequence (looked up): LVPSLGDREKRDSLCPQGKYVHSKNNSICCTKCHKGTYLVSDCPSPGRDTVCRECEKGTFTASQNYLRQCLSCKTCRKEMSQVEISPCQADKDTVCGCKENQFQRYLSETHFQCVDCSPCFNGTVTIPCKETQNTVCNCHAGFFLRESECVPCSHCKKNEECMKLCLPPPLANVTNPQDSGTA

B1: ATROSAB (antibody, human IgG1, kappa, V domains shown)
VH: QVQLVQSGAEVKKPGSSVKVSCKASGYTFTDFYINWVRQAPGQGLEWIGEIYPYSGHAYYNEKFKARVTITADKSTSTAYMELSSLRSEDTAVYYCARWDFLDYWGQGTTVTVSS
VL: DIVMTQSPLSLPVTPGEPASISCRSSQSLLHSNGNTYLHWYLQKPGQSPQLLIYTVSNRFSGVPDRFSGSGSGTDFTLKISRVEAEDVGVYYCSQSTHVPYTFGGGTKVEIKR
notes: Humanized full-length human IgG1 made in CHO cells; Effector-deficient Fc (IgG1e3: E233P/L234V/L235A/deltaG236, A327G/A330S/P331S), allotype G1m-1,17; also called IZI-06.1 IgG; humanized H398 IgG1
B2: H398 (antibody, V domains shown)
VH: QVQLQESGAELARPGASVKLSCKASGYTFTDFYINWVKQRTGQGLEWIGEIYPYSGHAYYNEKFKAKATLTADKSSSTAFMQLNSLTSEDSAVYFCVRWDFLDYWGQGTTLTVSS
VL: DIVMTQSPLSLPVSLGDQASISCRSSQSLLHSNGNTYLHWYVQKPGQSPKLLIYTVSNRFSGVPDRFSGSGSGTDFTLKISRVEAEDLGVYFCSQSTHVPYTFGGGTKLEIK

What was measured:
[1] = target: T1, human TNFR1-Fas on transfected mouse …; assay: flow cytometry, titration on MEF-TNFR1-Fas cells
Method: (§1) Binding to TNFR1-Fas or TNFR2-Fas transfected MEF cells was analyzed by flow cytometry. Cells (2×105) were incubated with dilution series of antibodies for 4 h at 4° C. Cells were then washed with PBS and bound antibodies were detected with PE-labeled goat anti-mouse or anti-human antibody. Cells were analyzed by flow cytometry (Cytomics FC 500, Beckmann-Coulter, Krefeld, Germany). Data were evaluated with the program WinMDI, version 2.9, and fitted with GraphPrism software (La Jolla, USA) from 3 independent binding curves.

[2] = target: T2, human TNFR1 on Kym-1, HeLa and HT1080 …; assay: cell-based or functional assay
[3] = target: T3, human TNFR2-Fas on transfected mouse …; assay: flow cytometry on transfected MEF cells
Method: as §1

[4] = target: T4, chimeric human/mouse TNFR1-Fc construct …; assay: ELISA on chimeric TNFR1-Fc
Method: (§2) Antibodies (0.1 nM) were analyzed by ELISA for binding to the TNFR1-Fc fusion proteins. […] Cysteine residues are marked with grey boxes and the 2 positions (P23, Q24) analyzed by site-directed mutagenesis are marked by asterisks.

[5] = target: T5, chimeric human/mouse TNFR1-Fc construct …; assay: ELISA on chimeric TNFR1-Fc
Method: as §2

[6] = target: T6, chimeric human/mouse TNFR1-Fc construct …; assay: ELISA on chimeric TNFR1-Fc
Method: as §2

[7] = target: T7, chimeric human/mouse TNFR1-Fc construct …; assay: ELISA on chimeric TNFR1-Fc, antibody 0.1 nM
Method: as §2

rhesus TNFR1-Fc = target: T8, rhesus TNFR1-Fc; assay: quartz crystal microbalance, TNFR1-Fc immobilized
Method: (§3) Affinities of the antibodies were determined by quartz crystal microbalance measurements (QCM; Attana A-100 C-Fast system, Stockholm, Sweden). Binding experiments were performed in PBS 0.005% Tween 20 at a flow rate of 25 to 35 μl/min and temperature was controlled at 20° C. The TNFR1-Fc fusion proteins were chemically immobilized on an Attana carboxyl sensor chip by amine coupling at a concentration of 50 μg/ml according to the manufacturer's protocol resulting in a signal increase (frequency shift) of approximately 200 Hz. Antibodies were analyzed at concentration between 62.5 and 3.9 nM (4 measurements per concentration). The chip was regenerated with 10 mM glycine-HCl, pH 3.0. Buffer injections were performed prior to each sample injection to use as a reference in Attester Evaluation. Data were collected by Attester 3.0 (Version 3.1.1.8, Attana, Stockholm, Sweden) and analyzed by ClampXP (Myszka and Morton 1998). A mass transport model (Myszka 1997) was fitted to the data.

human TNFR1-Fc = target: T9, human TNFR1-Fc; assay: quartz crystal microbalance, TNFR1-Fc immobilized
Method: as §3

mouse TNFR1-Fc = target: T10, mouse TNFR1-Fc; assay: ELISA on coated TNFR1-Fc (100 ng/well)
Method: (100 ng/well). Binding was detected by HRP-conjugated anti-molgG (Fc-specific) antibody or anti-human Fab antibody, respectively. Binding of an anti-human Fc antibody (anti-Fc) was included as coating control.

| Binder | EC50 [1] | IC50, inhibition of TNF-induced IL-6 release from HeLa cells [2] | IC50, inhibition of TNF-induced IL-8 release from HT1080 cells [2] | binding result [3] | binding result [4] | binding result [5] | binding result [6] | binding result [7] | Kd (rhesus TNFR1-Fc) | koff (rhesus TNFR1-Fc) | kon (rhesus TNFR1-Fc) | Kd (human TNFR1-Fc) | koff (human TNFR1-Fc) | kon (human TNFR1-Fc) | binding result (mouse TNFR1-Fc) |
| --- | --- | --- | --- | --- | --- | --- | --- | --- | --- | --- | --- | --- | --- | --- | --- |
| B1 | ~0.1 nM | 60 nM | 60 nM | no binding | no binding (tested: 0.1 nM) | no binding (tested: 0.1 nM) | no binding (tested: 0.1 nM) | binds | 0.1 nM | 6.7e-05 s⁻¹ | 690000 M⁻¹ s⁻¹ | 0.35 nM | 0.00013 s⁻¹ | 380000 M⁻¹ s⁻¹ | no binding (tested: 5 ug/ml) |
| B2 | ~0.1 nM | 6 nM | 6 nM | – | – | – | – | – | 0.49 nM | 0.0001 s⁻¹ | 210000 M⁻¹ s⁻¹ | 0.23 nM | 7e-05 s⁻¹ | 310000 M⁻¹ s⁻¹ | – |
